# Measured values published in US20190263932A1 (Eli Lilly, published 2019).
# Changes are numbered by the printed parent chain.
# B1: mAb D (antibody, human IgG1, kappa)
# heavy: EVQLVESGGGLVKPGGSLRLSCAASGFTFSGVSINWVRQAPGKGLEWVSSETTSSGTIYYADSVKGRFTISRDNAKNSLYLQMNSLRAEDTAVYYCARSYYYGMDVWGQGTTVTVSSASTKGPSVFPLAPSSKSTSGGTAALGCLVKDYFPEPVTVSWNSGALTSGVHTFPAVLQSSGLYSLSSVVTVPSSSLGTQTYICNVNHKPSNTKVDKRVEPKSCDKTHTCPPCPAPEAEGAPSVFLFPPKPKDTLMISRTPEVTCVVVDVSHEDPEVKFNWYVDGVEVHNAKTKPREEQYNSTYRVVSVLTVLHQDWLNGKEYKCKVSNKALPSSIEKTISKAKGQPREPQVYTLPPSREEMTKNQVSLTCLVKGFYPSDIAVEWESNGQPENNYKTTPPVLDSDGSFFLYSKLTVDKSRWQQGNVFSCSVMHEALHNHYTQKSLSLSPGK
# light: DIVMTQTPLSSPVTLGQPASISCRSSQSLVHRAGNTYLSWLQQRPGQPPRLLIYKISNRFSGVPDRFSGSGAGTDFTLKISRVEAEDVGVYYCMQARQFPLTFGGGTKVEIKRTVAAPSVFIFPPSDEQLKSGTASVVCLLNNFYPREAKVQWKVDNALQSGNSQESVTEQDSKDSTYSLSSTLTLSKADYEKHKVYACEVTHQGLSSPVTKSFNRGEC
# notes: Human IgG1EN/Kappa
# B2: mAb E (antibody, human IgG1, kappa)
# heavy: B1 heavy
# light: B1 light with A33Q
# notes: Human IgG1EN/Kappa
# How the values were obtained:
# [1] = target: TrkA on rat NEUROSCREEN-1 cells (pheochromocytoma PC12 subclone) (rat, UniProt P35739 33-799); assay: cell-based or functional assay
# Sequence of TrkA on rat NEUROSCREEN-1 cells (pheochromocytoma PC12 subclone) (P35739 33-799): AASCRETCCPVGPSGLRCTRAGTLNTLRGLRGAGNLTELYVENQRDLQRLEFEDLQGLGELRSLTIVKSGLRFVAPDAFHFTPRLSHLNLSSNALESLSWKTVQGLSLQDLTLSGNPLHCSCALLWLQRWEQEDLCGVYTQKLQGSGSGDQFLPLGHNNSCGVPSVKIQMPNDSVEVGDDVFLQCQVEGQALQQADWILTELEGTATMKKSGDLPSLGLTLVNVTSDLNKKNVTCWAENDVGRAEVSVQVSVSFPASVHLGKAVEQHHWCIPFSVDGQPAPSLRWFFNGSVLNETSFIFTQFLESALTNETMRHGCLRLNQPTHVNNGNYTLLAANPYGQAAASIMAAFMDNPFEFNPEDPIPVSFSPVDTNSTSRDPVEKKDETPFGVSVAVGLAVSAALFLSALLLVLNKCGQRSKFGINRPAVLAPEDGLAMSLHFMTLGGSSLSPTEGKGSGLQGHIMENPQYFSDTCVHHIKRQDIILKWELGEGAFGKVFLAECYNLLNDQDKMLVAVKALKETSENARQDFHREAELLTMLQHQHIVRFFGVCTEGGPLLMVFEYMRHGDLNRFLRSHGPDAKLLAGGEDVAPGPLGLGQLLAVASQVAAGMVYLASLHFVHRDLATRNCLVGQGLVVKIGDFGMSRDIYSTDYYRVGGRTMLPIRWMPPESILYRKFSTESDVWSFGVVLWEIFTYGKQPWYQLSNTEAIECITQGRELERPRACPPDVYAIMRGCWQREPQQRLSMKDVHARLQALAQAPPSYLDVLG
# [2] = target: T1, rat TrkA receptor expressed in transfected HEK293 cells (rat, UniProt P35739 33-799); assay: cell-based or functional assay
# T1 sequence (P35739 33-799): as above
# [3] = target: T1, rat TrkA receptor expressed in …; assay: cell-based or functional assay; remark: listed apart in the source
# [4] = target: T2, Human TrkA Extracellular Domain Isoform 2 (33-408) (human, UniProt P04629 33-414); assay: SPR, mAb captured on Protein A chip, 37 C
# T2 construct: SPR analyte; also called Human TrkA Isoform 2
# T2 sequence (P04629 other isoform, or with tags, fused parts or gaps): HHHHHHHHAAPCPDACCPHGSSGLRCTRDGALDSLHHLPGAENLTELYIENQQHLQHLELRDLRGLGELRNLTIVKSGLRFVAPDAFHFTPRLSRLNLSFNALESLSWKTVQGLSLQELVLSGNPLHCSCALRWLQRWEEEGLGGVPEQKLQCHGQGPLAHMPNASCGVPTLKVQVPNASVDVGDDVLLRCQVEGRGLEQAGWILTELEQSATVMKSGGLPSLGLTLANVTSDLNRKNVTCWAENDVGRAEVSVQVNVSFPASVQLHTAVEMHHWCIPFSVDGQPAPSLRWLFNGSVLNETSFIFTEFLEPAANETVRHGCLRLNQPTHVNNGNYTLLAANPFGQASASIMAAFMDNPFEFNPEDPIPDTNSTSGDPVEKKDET
# Procedure: (§1) The binding kinetics and affinity of exemplified antibodies to human, cynomolgus monkey, rat, mouse, and rabbit TrkA are determined as described below using a surface plasmon resonance assay on a BIACORE™ 8K instrument (GE Healthcare). Two different isoforms of human TrkA (isoform 1 and isoform 2) are evaluated along with human TrkB and human TrkC. […] All FC2 on all eight channels are set to capture approximately 89 response units (RU) of antibody at a flow rate of 10 μL/min. The antibody sample is prepared at 1 μg/mL by dilution into the running buffer. […] Before the analysis cycle, the chip is regenerated with 3 injections of glycine (pH ˜1.5) at 100 μL/min for a contact time of 15 seconds on FC1 and FC2 in order to clean the surface of the chip.
# [5] = target: T3, Human TrkA Extracellular Domain Isoform 1 (33-414) (human, UniProt P04629 33-414); assay: SPR, mAb captured on Protein A chip, 37 C
# T3 construct: SPR analyte; also called Human TrkA Isoform 1
# T3 sequence (P04629 other isoform, or with tags, fused parts or gaps): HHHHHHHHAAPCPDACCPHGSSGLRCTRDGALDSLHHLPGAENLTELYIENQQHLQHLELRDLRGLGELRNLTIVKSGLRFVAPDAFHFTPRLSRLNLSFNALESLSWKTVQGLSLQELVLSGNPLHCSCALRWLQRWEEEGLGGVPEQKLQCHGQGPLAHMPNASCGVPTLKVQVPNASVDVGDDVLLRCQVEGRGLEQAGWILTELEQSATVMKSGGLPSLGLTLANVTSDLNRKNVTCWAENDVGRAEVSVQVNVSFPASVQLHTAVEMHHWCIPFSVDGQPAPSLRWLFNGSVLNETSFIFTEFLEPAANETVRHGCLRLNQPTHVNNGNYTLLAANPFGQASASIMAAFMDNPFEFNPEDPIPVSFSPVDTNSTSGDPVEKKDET
# Procedure: as §1
# [6] = target: T4, recombinant human TrkA protein (human, UniProt P04629-2 34-407, limits assumed); assay: NGF-blocking ELISA on coated human TrkA, 100 nM btNGF
# T4 sequence (P04629 other isoform, or with tags, fused parts or gaps limits assumed): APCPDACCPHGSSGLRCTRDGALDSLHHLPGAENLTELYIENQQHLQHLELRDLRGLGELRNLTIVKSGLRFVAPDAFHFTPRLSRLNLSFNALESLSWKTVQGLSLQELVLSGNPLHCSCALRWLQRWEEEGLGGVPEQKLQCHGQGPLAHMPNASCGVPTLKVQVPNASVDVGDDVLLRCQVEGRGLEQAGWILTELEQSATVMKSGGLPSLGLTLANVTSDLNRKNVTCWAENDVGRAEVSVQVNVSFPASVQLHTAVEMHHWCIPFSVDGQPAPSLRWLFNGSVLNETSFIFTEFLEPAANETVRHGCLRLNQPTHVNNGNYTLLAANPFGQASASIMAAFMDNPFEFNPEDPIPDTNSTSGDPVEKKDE
# Procedure: (§2) Each row of a 96-well high-binding clear-bottom microtiter plate (Microlon, #655061) was coated overnight at 4° C. with 100 μL/well of recombinant human TrkA protein, diluted to 2 μg/mL in phosphate buffered saline, pH 7.2 (PBS). The next day, the coating solution was removed, and the plate was blocked with 150 μL of Casein-PBS (Thermo Scientific, #37528) for 1 hour at 25° C. with gentle shaking. The plate was then washed three times with PBS supplemented with 0.05% Tween20 (PBST). A two-fold dilution series of exemplified antibodies, along with IgG4 and IgG1 isotype control antibodies, was generated starting at 20 nM in Casein-PBS. 100 μL of the each dilution series sample was added to a well for 30 min at 37° C. with gentle shaking. The plate was then washed three times with PBST. […] The plate was then washed three times with PBST. A 1:3500 dilution of a 1 mg/mL stock solution of streptavidin-HRP (Thermo Scientific, #21130) in Casein-PBS was prepared and […] was added to each well for 20 min at 37° C. with gentle shaking. The plate was washed three times with PBST. […] The reaction was stopped by addition of 100 μL of 1M H₃PO₄ to each well. The absorbance at 450 nm (Abs450) was measured using a SpectraMax 340PC plate reader (Molecular Devices).
# [7] = target: T4, recombinant human TrkA protein; assay: NGF-blocking ELISA on coated human TrkA, 100 nM btNGF; mAb 5 nM
# Procedure: as §2
# [8] = target: T4, recombinant human TrkA protein; assay: NGF-blocking ELISA on coated human TrkA, 100 nM btNGF; mAb 10 nM
# Procedure: as §2
# [9] = target: T4, recombinant human TrkA protein; assay: NGF-blocking ELISA on coated human TrkA, 100 nM btNGF; mAb 20 nM
# [10] = target: T4, recombinant human TrkA protein; assay: NGF-blocking ELISA on coated human TrkA, 100 nM btNGF; mAb 2.5 nM
# Procedure: as §2
# [11] = target: T4, recombinant human TrkA protein; assay: NGF-blocking ELISA on coated human TrkA, 100 nM btNGF; mAb 0.02 nM
# Procedure: as §2
# [12] = target: T4, recombinant human TrkA protein; assay: NGF-blocking ELISA on coated human TrkA, 100 nM btNGF; mAb 0.04 nM
# Procedure: as §2
# [13] = target: T4, recombinant human TrkA protein; assay: NGF-blocking ELISA on coated human TrkA, 100 nM btNGF; mAb 0.08 nM
# Procedure: as §2
# [14] = target: T4, recombinant human TrkA protein; assay: NGF-blocking ELISA on coated human TrkA, 100 nM btNGF; mAb 0.16 nM
# Procedure: as §2
# [15] = target: T4, recombinant human TrkA protein; assay: NGF-blocking ELISA on coated human TrkA, 100 nM btNGF; mAb 0.63 nM
# Procedure: as §2
# [16] = target: T4, recombinant human TrkA protein; assay: NGF-blocking ELISA on coated human TrkA, 100 nM btNGF; mAb 1.25 nM
# Procedure: as §2
# [17] = target: T4, recombinant human TrkA protein; assay: NGF-blocking ELISA on coated human TrkA, 100 nM btNGF; mAb 0.31 (printed pM, two-fold series gives nM)
# Procedure: as §2
Binder,% Max Stimulation of neurite outgrowth [1],"IC50, inhibition of NGF-induced neurite outgrowth [1]","% Max Inhibition, pTrkA [2]","IC50 (nM), pTrkA [2]","pTrkA counts per second, NGF +0.1 pM mAb [2]","pTrkA counts per second, NGF +1 pM mAb [2]","pTrkA counts per second, NGF +10 pM mAb [2]","pTrkA counts per second, NGF +100 pM mAb [2]","pTrkA counts per second, NGF +1 nM mAb [2]","pTrkA counts per second, NGF +10 nM mAb [2]","pTrkA counts per second, NGF +100 nM mAb [2]","pTrkA counts per second, NGF +1 uM mAb [2]","% Max stimulation, pTrkA [3]","EC50 (nM), pTrkA [3]","pTrkA counts per second, 0.1 pM mAb, no NGF [3]","pTrkA counts per second, 1 pM mAb, no NGF [3]","pTrkA counts per second, 10 pM mAb, no NGF [3]","pTrkA counts per second, 100 pM mAb, no NGF [3]","pTrkA counts per second, 1 nM mAb, no NGF [3]","pTrkA counts per second, 10 nM mAb, no NGF [3]",also measured
B1,17%,0.08 nM,40%,0.68 nM,4.53e+06 counts per second,4.06e+06 counts per second,4.52e+06 counts per second,3.79e+06 counts per second,3.16e+06 counts per second,2.43e+06 counts per second,2.59e+06 counts per second,1.93e+06 counts per second,77%,0.17 nM,571000 counts per second,585000 counts per second,627000 counts per second,1.25e+06 counts per second,2.39e+06 counts per second,2.97e+06 counts per second,"pTrkA counts per second, 100 nM mAb, no NGF [3]: 2.85e+06 counts per second; pTrkA counts per second, 1 uM mAb, no NGF [3]: 2.05e+06 counts per second; Kd [4]: 4.9 nM; koff [4]: 0.0013 s⁻¹; kon [4]: 250000 M⁻¹ s⁻¹; Kd [5]: 4.4 nM; koff [5]: 0.0012 s⁻¹; kon [5]: 280000 M⁻¹ s⁻¹; IC50 [6]: 0.37 nM; Absorbance 450 nm [7]: 0.19; Absorbance 450 nm [8]: 0.17; Absorbance 450 nm [9]: 0.19; Absorbance 450 nm [10]: 0.16; Absorbance 450 nm [11]: 1.05; Absorbance 450 nm [12]: 1; Absorbance 450 nm [13]: 0.96; Absorbance 450 nm [14]: 0.89; Absorbance 450 nm [15]: 0.38; Absorbance 450 nm [16]: 0.19; Absorbance 450 nm [17]: 0.67"
B2,17%,0.07 nM,37%,0.68 nM,2.94e+06 counts per second,3.38e+06 counts per second,3.44e+06 counts per second,3.7e+06 counts per second,2.27e+06 counts per second,2.23e+06 counts per second,1.7e+06 counts per second,1.88e+06 counts per second,74%,0.3 nM,739000 counts per second,636000 counts per second,610000 counts per second,1.01e+06 counts per second,1.82e+06 counts per second,2.46e+06 counts per second,"pTrkA counts per second, 100 nM mAb, no NGF [3]: 2.02e+06 counts per second; pTrkA counts per second, 1 uM mAb, no NGF [3]: 2.05e+06 counts per second; Kd [4]: 5.2 nM; koff [4]: 0.0014 s⁻¹; kon [4]: 260000 M⁻¹ s⁻¹; Kd [5]: 4.8 nM; koff [5]: 0.0013 s⁻¹; kon [5]: 270000 M⁻¹ s⁻¹; IC50 [6]: 0.35 nM; Absorbance 450 nm [7]: 0.21; Absorbance 450 nm [8]: 0.19; Absorbance 450 nm [9]: 0.19; Absorbance 450 nm [10]: 0.19; Absorbance 450 nm [11]: 1.1; Absorbance 450 nm [12]: 1.04; Absorbance 450 nm [13]: 1.05; Absorbance 450 nm [14]: 0.92; Absorbance 450 nm [15]: 0.41; Absorbance 450 nm [16]: 0.25; Absorbance 450 nm [17]: 0.68"
